In US20180334496A1 (KODIAK SCIENCES, published 2018):
Where two headings read alike, the source gives them in different places.

Columns and labels:
[1] = target: T1, recombinant human CFD mutant 1 (R157A, R207A), His-tagged (human, UniProt P00746 26-253); assay: ELISA
T1 construct: positions are linear positions in the mature protein; also called rhCFD-mut1-His; Mut1

[2] = target: T2, human complement factor D purified from serum (human, UniProt P00746 26-253); assay: SPR MX96
T2 construct: serum-purified (CompTech); also called hCFD-Comptech; CFD
T2 sequence (P00746 26-253): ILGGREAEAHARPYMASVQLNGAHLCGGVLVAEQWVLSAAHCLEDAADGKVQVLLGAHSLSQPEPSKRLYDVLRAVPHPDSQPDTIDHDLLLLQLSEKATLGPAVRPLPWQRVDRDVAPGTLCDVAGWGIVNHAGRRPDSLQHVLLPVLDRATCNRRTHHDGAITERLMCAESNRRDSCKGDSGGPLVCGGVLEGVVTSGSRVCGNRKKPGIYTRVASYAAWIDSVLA

[3] = target: T3, recombinant cynomolgus CFD, His-tagged (cynomolgus); assay: SPR MX96
T3 construct: also called rcyCFD-His; recombinant Cyno-CFD

[4] = target: T4, recombinant human CFD, His-tagged (human, UniProt P00746 26-253); assay: SPR MX96
T4 construct: also called rhCFD-His
T4 sequence (P00746 26-253 limits assumed): as the sequence (P00746 26-253) above

[5] = target: T2, human complement factor D purified from …; assay: cell-based or functional assay
[6] = target: T2, human complement factor D purified from …
[7] = target: T1, recombinant human CFD mutant 1 (R157A, …); assay: ELISA, Mut1 Binding, Bin 2
[8] = target: T2, human complement factor D purified from …; assay: cell-based or functional assay; remark: listed apart in the source
[9] = target: T1, recombinant human CFD mutant 1 (R157A, …); assay: SPR MX96
[10] = target: T2, human complement factor D purified from …; remark: listed apart in the source
[11] = target: T1, recombinant human CFD mutant 1 (R157A, …); assay: ELISA; remark: listed apart in the source
[12] = target: T2, human complement factor D purified from …; assay: cell-based or functional assay; remark: listed apart in the source
[13] = target: T1, recombinant human CFD mutant 1 (R157A, …); assay: ELISA; remark: listed apart in the source
[14] = target: T2, human complement factor D purified from …; remark: listed apart in the source
Throughout, for CFD Enzymatic activity (% of Neg Ctrl): test concentration or dose not given here.

T1 sequence (P00746 26-253 R182A/R232A limits assumed): as the sequence (P00746 26-253) above, with R157A, R207A counted along it

Binder	Mut1 Binding (% wt) [1]	Kd [2]	Kd [3]	Kd [4]	CFD Enzymatic activity (% of Neg Ctrl) [5]	Kd [6]	binding result [7]	CFD Enzymatic activity (% of Neg Ctrl) [8]	Kd [9]	Kd [10]	Mut1 Binding (% wt) [11]	CFD Enzymatic activity (% of Neg Ctrl) [12]	Mut1 Binding (% wt) [13]	Kd [14]
KCD010 (antibody, V domains shown, chimeric) VH: EVLLQQSGPELVKPGASVKIPCKASGYTFTDYDMDWVKQSHGKSLEWIGHINPNNGGTIYNQKFKGKATLTVDKSSSTAYMELRSLTSEDTAVYYCGTGDFAYWGHGTLVTVSA VL: QIVLTQSPAIMSVSPGEKVTLTCSASSSVSSSYLYWYQKKPGSSPKLWIYSTSNLASGVPARFSGSGSGTSYSLTISSMEAEDAASYFCHQWSSYPPTFGAGTKLELK	3.77 % wt	3.1 nM	2.9 nM	2.5 nM	49.4 % of Neg Ctrl	1.46 nM	no binding	–	–	–	–	–	–	–
KCD122 (antibody, V domains shown, chimeric) VH: EVQLQQSGPELVKPGASVKISCKASGYTFTDYYKNWMRQRHGESLEWIGDINPNNGDANYNQKFKGKATLTVDKSSSTAYMELRSLTSEDSAVYFCAREGPSFAYWGHGTLVTVSA VL: DVLMTQTPLSLPVSLGDQASISCRSSQTIVHSNGDTYLEWYLQKPGQSPNLLIYKVSNRFSGVPDRFSGSGSGTDFTLKISRVEAEDLGVYYCFQGSHVPPTFGGGTKLEIK	2.25 % wt	1.4 nM	1.9 nM	0.95 nM	17.3 % of Neg Ctrl	0.162 nM	no binding	–	–	–	–	–	–	–
KCD003 (antibody, V domains shown, chimeric) VH: EVQLQQSRPELVKPGASVKIFCKASGYTFTDYYMNWMRQRHGETLEWIGDINPNNGDPSYNQKFKDKATLTVDKSSSTASMELRSLTSDDSAVYYCAREGPSFAYWGQGTLVTVSA VL: DVLMTQTPLSLPVSLGEQASISCRSSQTIVHSNGDTYLEWYLQKPGQSPNLLIYKVSNRFSGVPDRFSGSGSGTDFTLKISRVEAEDLGVYYCFQGSHVPPTFGGGTKLEIK	1.53 % wt	1.1 nM	1.8 nM	0.81 nM	19.6 % of Neg Ctrl	0.318 nM	no binding	–	–	–	–	–	–	–
KCD208 (antibody, V domains shown, chimeric) VH: EVQLQQSVAELVRPGASVKLSCTVSGFNIKNTYMHWVKQRPEQGLEWIGRIDPANGDTTYAPKFQGKATITADTSSNSAYLHLSRLTSEDTAIYYCSLYDYDGYWGQGTTLTVSS VL: EIVLTQSPALMAASPGEKVTITCSVSSSISSSSLHWYRQKSGTSPKPWIYGTSHLASGVPVRFSGSGSGTSYSLTISSMEAEDAATYYCQQWDTYPWTFGGGTKLEIK	–	2.5 nM	52 nM	1.9 nM	–	–	–	0 % of Neg Ctrl	1.8 nM	0.451 nM	56.7 % wt	–	–	–
KCD214 (antibody, V domains shown, chimeric) VH: EVQLQQSVAEFVRPGASVKLSCTASGFNIKNTYMHWVKQRPEQGLEWIGRIDPANGNTEYAPKFQGKATITADTSSNTAYLQLSSLTSEDTAIYYCALYDYDGYWGQGTTLTVSS VL: EIVLTQSPALMAASPGEKVTITCRVSSSISSSSLHWYQQKSGTSPKPWIYGTSNLASGVPVRFSGSRSGTSYSLTISSMEAEDAATYYCQQWSDYPWTFGGGTKLEIK	–	1.6 nM	26 nM	1.1 nM	–	–	–	12.8 % of Neg Ctrl	1.3 nM	0.245 nM	44.3 % wt	–	–	–
KCD224 (antibody, V domains shown, chimeric) VH: QVQLKESGPGLVAPSQSLSITCTVSGFSLTSYGVDWIRQSPGKGLEWLGVIWGVGSTNYNSALKSRLSISKDNSKSQVFLKMNSLQTDDTAMYYCARSYDGSYWYFDVWGTGTTVTVSS VL: DIQMTQTTSSLSASLGDRVTISCRASQVISNYLNWYQQKPDGTVKLLIYYTSRLHSGVPSRFSGSGSGTDYSLTISNLEPEDIATYYCQQYSKLPYTFGSGTKLEIK	–	1.2 nM	100 nM	0.54 nM	–	–	–	36.3 % of Neg Ctrl	1.1 nM	0.0156 nM	121 % wt	–	–	–
KCD136 (antibody, V domains shown, chimeric) VH: EVQLQQSVAELVRPGASVKLSCSASGFNIKNTYMHWVNQRPEQGLEWIGRIDPANGITKYAPNFQGKATITADTSSNTAYLQLSNLTSEDTAIYYCTRAMDYWGQGTSVTVSS VL: QIVLTQSPAIMSASPGEKVTMTCSASSSVSYMYWYQQKPGSSPRLLIYDISNLASGVPVRFSGSGSGTSYSLTISRMEAEDAATYYCQQWDTYPWTFGGGTKLEIK	–	4.5 nM	27 nM	3.4 nM	–	–	–	11.8 % of Neg Ctrl	1.4 nM	0.587 nM	78.3 % wt	–	–	–
KCD002 (antibody, V domains shown, chimeric) VH: EVKLVESEGGLVQPGSSMKLSCTASGFTFSDYYMAWVRQVPEKGLEWVGNINYDGSSTYYLDSLKSRFIISRDSAKNILYLQMSSLKSEDTATYFCARGEDFYLYAMDYWGQGTSVTVSS VL: DIQMTQSPASLSASVGETVTITCRASENIHSYLAWYQQKQGKSPQLIVYNTKTLAEGVPSRFSGSGSGTQFSLKINSLQPEDFGSYYCQHHYGIPPTFGGGTKLEIK	–	0.13 nM	0.41 nM	0.11 nM	–	–	–	–	0.08 nM	–	–	144 % of Neg Ctrl	71.2 % wt	0.0307 nM
KCD102 (antibody, V domains shown, chimeric) VH: QVQLQQPGAELVRPGTSVKLSCKASGYTFTSYWMHWVKQRPGQGLEWIGVIDPSDSYTNYNQKFKGKATLTVDTSSSTAYMQLSSLTSEDSAVYYCARNGYDGSMDYWGQGTSVTVSS VL: EIQMTQTTSSLSASLGDRVTISCRASQDISNYLNWYQQKPDGTVKLLIYYPSRLHSGVPSRFSGSGSGTDYSLTISNLEQEDFATYFCQQGNTLPYTFGGGTKLEIK	–	3.6 nM	230 nM	2.5 nM	–	–	–	–	2.5 nM	–	–	92.3 % of Neg Ctrl	64.3 % wt	6.98 nM
KCD101 (antibody, V domains shown, chimeric) VH: QVQLQQPGAELVRPGTSVKLSCKASGYTFTSYWMHWVKQRPGQGLEWIGVIDPSDSYTNYNQKFKGKATLTVDTSSSTAYMQLSSLTSEDSAVYYCGRNGYDGSMDYWGQGTSVTVSS VL: DIQMTQTTSSLSASLGDRVTISCRASQDISNYLNWYQQKPDGTVKLLIYYPSRLHSGVPSRFSGSGSGTDYSLTISNLEQEDFATYFCQQGNTLPYTFGGGTKLEIK	–	3.8 nM	240 nM	2.7 nM	–	–	–	–	2.8 nM	–	–	93.2 % of Neg Ctrl	65.8 % wt	1.45 nM
KCD103 (antibody, V domains shown, chimeric) VH: QVQLQQPGAELVRPGTSVKLSCKASGYTFTSYWMHWVKQRPGQGLEWIGVIDPSDSYTKYNQKFKDKATLTVETSSSTAYMQLSSLTSEDSAVYYCAGNGYDGSMDYWGQGTSVTVSS VL: DIQMTQTTSSLSASLGDRVTISCRASQDISNSLNWYQQKPDGTVKLLIYYTSRLHSRVPSRFSGSGSGTDYSLTISNLDQEDIATYFCQQANTLPYTFGGGTKLEIK	–	4.4 nM	63 nM	3.1 nM	–	–	–	–	2.5 nM	–	–	126 % of Neg Ctrl	65.2 % wt	1.48 nM
KCD104 (antibody, V domains shown, chimeric) VH: QVQLQQPGAELVRPGTSVKLSCKASGYTFTSYWMHWVKQRPGQGLEWIGVIDPSDSYTYYNQKFKGKATLTVDTSSSTAYMQLSSLTSEDSAVYYCARNGYDGAMDYWGQGTSVTVSS VL: EIQMTQTTSSLSASLGDRVTISCRASQDISNYLNWYQQKPDGTVKLLIYYPSRLHSGVPSRFSGSGSGTDYSLTISNLEQEDFATYFCQQGNTLPYTFGGGTKLEIK	–	1.6 nM	72 nM	1.2 nM	–	–	–	–	0.82 nM	–	–	92.3 % of Neg Ctrl	68.3 % wt	1.32 nM
KCD131 (antibody, V domains shown, chimeric) VH: QVQLQQSGPELVKPGASVKISCKASAYTFTDYYINWVKQRPGQGPEWIGWIFPGSNSTYSNEKFEVKATLTVDESSSTAYMLLSSLTSEDSAVYFCARLGYFGSSYHALDYWGQGTSVTVSS VL: DIQMTQSPASLSVSVGETVTITCRASENIYSHLAWFQQKQGKSPRLLVYSATNLPDGVPSRFSGSGSGTQYSLKINILQSEDFGSYYCQHFWGTPWTFGGGTKLEIK	–	0.14 nM	0.99 nM	0.047 nM	–	–	–	–	0.045 nM	–	–	65.9 % of Neg Ctrl	80.7 % wt	0.0342 nM
KCD220 (antibody, V domains shown, chimeric) VH: QVQLQQSGAELMEPGASVKLSCKATGYTFTGYWIEWVKQRPGHGLEWIGETLPGSDSNNYNEKFKGKATFTADTSSNTAYMQLSSLTTEDSAIYYCARDYSNYWYFDVWGTGTTVTVSS VL: DIQMTQTTSSLSASLGDRVTISCRASQDISNYLNWYQQKPDGTVKLLIYYTSNLHSGVPSRFSGSGSGTDYSLTISNLEQEDIATYFCQQDSKHRTFGGGTKLEIK	–	0.054 nM	0.28 nM	0.074 nM	–	–	–	–	0.029 nM	–	–	88.1 % of Neg Ctrl	74.1 % wt	0.0639 nM
